Legend:
[1] = biological target: T1, Fas-Fc / Fas ligand binding (Mus musculus, UniProt P25446); assay: Competition ELISA: coated Fas ligand, Fas-Fc added with increasing amounts of polypeptide; details: Fas ligand 1 μg/ml coated, Fas-Fc 1 μg/ml
T1 construct: purchased R&D
T1 sequence (P25446 22-169 limits assumed): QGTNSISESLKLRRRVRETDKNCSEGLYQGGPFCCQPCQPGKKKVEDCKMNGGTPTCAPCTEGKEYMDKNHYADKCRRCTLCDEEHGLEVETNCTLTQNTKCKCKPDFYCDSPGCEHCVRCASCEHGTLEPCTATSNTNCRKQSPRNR
Description: This antibody also recognizes Fas-Fc which is also tagged at the C-terminus by His. In FIG. 2b, a fixed amount of purified recombinant Fas-ligand was added to Fas-Fc in the absence or presence of increasing amounts of AlphaMet as indicated. Samples were subjected to pull down using proteinA agarose followed by Western blot using a polyclonal rabbit anti-FasL antibody. […] Fas ligand (1 μg/ml) was coated in the wells of a microtiter plate (triplicate wells) then 1 μg/ml of Fas-Fc was added in the absence or presence of an increasing amount of the indicated polypeptide. A 13 mer YLGA polypeptide derived from FasL also was synthesized and used. The control peptide was a scrambled 13 mer. Anti human IgM-HRP conjugates were used to detect the bound Fas-Fc. […] One-way ANOVA was carried out for determination of statistical significance. […] Cells (3×10^5) were plated in 24-well plates having Poly-L-Lysine pre-treated cover glass. 2 μg/ml of Fas ligand was added and the cells were incubated for 30 min on ice. Cells were then washed by PBS twice, and were subjected to immunostaining using anti-Fas ligand antibody and fluorescent microscopy. In Frame A, Fas ligand was not added, in B, only Fas ligand was added, in C-F, Fas ligand was added with different polypeptides as follows: AlphaMet, 12 mer YLGA, control peptide, and YLGA mutated AlphaMet, respectively.
(§1) ELISA. Synthesized polypeptides (Genemed Synthesis, Inc. South San Francisco, Calif.) were dissolved in water and diluted in the coating buffer (0.05M of Sodium Carbonate, 0.02% of Sodium Azide, pH 9.6) to a final concentration of 1 ug/ml. One hundred microliter aliquots were added to coat each well of a 96-well microtitre plate. The coated plates were then washed with PBS-Tween (0.5%) three times. The plates were blotted and dried by tapping upside down on tissue paper. They were blocked using 200 μl of 1% of BSA in PBS solution followed by a 2 hour incubation. Plates were washed another three times, Fas-Fc was added, and the plates were incubated for another 2 hours. The plates were washed three times and anti-human IgM Fc HRP conjugates were included at a final concentration of 1:20,000, and incubated for 1 hour. Plates were washed three times again and ready-to-use TMD was added and incubated for 30 minutes. The color reaction was stopped by 2M of Sulfuric Acid. Plates were applied to color read at a wave length of 450 nm.

Fas-Fc = biological target: T2, Fas-Fc (Mus musculus, UniProt P25446); assay: ELISA of Fas-Fc binding to coated synthetic polypeptides; details: peptides coated at 1 μg/ml, increasing Fas-Fc, OD 450 nm
T2 construct: purchased R&D
T2 sequence (P25446 22-169 limits assumed): T1 sequence (P25446 22-169 limits assumed)
Text: The Met alpha but not beta chain binds to Fas (FIG. 1a). Various regions of the mouse Met cDNA corresponding to the alpha chain or the extra-cellular portion of the Met beta chain were cloned into expression vectors (pCRT7 TOPO/AlphaMet or pCRT7 TOPO/beta chain) and subjected to in vitro transcription/translation by a rabbit reticolucyte lysate translation system. Empty vector was included in each experiment as a control. The expressed proteins were labeled with ^35S-Methionine. Pull down assays were performed using Fas-Fc, a chimeric molecule which lacks the interacellular cytoplasmic domain and protein-A agarose as described in Wang et al., 2002. FIG. 1b is a schematic presentation of the Met alpha chain and its mutant version used to map the region interacting with Fas. The C-terminus of each construct contains a hexa-Histidine tag for ease of detection. Start cordon ATG was added to the N-terminally truncated constructs. The YLGA (SEQ ID NO:1) motif mutation was prepared by PCR, in which YLGA (SEQ ID NO:1) was replaced by DHER (SEQ ID NO:24). […] In vitro translated ^35S-methionine labeled truncated/mutated AlphaMet proteins were pulled down with 2 μg of Fas-Fc or the same amount of IgG. Lane 1: 10% of AlphaMet input; Lane 2: AlphaMet with IgG control; Lanes 3 to 8: pull down of various truncated AlphaMet proteins; N-terminal 1-106 residues; C-terminal truncated, residues 1-210; alpha chain, residues 1-306; alpha chain with transmembrane domain, 1-338; N-terminally truncated alpha chain, residues 100-306; and N-terminally truncated with addition of the transmembrane domain 100-338, respectively. FIG. 1d depicts the amino acid sequence alignment of alpha chain with FasL, determined using the CLUSTALW, SIM+LALNVIEW, and ALIGN at ExPASy Proteomic Tools (available on the internet at us.expresly.org/tools). The numbers indicate the amino acid residues of the indicated protein. […] Recombinant His-tagged AlphaMet or its mutant version were expressed in E. coli, purified with chromatography, and subjected to Fas-Fc (lanes labeled Fas) or control IgG pull down experiments, and detected by Western blot using anti-His antibody that recognizes C-terminal His. This antibody also recognizes the Fas-Fc which is also tagged at the C-terminus by His. […] Purified recombinant AlphaMet protein (approximately 10 μg) was mixed with Hepa 1-6 cells or Jurkat cell lysates and subjected to immunoprecicitation using anti-Fas antibody or control IgG followed by Western blot using anti His-tag antibody as a probe. […] Peptides (1 μg/ml) were coated into the 96-well microtiter plates in triplicate and after blocking with 1% BSA, increasing amounts of Fas-Fc were added as indicated. The control peptide was a scrambled 13 mer. After washing the wells, anti-human […]-HRP conjugates (1:20,000) were added to detect the bound Fas-Fc using TMD dye and the OD value was determined at a wavelength of 450 nm. One-way ANOVA was carried out for determination of statistical significance.
as §1, with “Plates were applied to color read at a wave length of 450 nm.” left out

Substance | inhibition of FasL binding to Fas-Fc (ELISA) [1] | Fas binding by ELISA (Fas-Fc)
HHIYLGATNYIY [12 mer] | significantly inhibited FasL binding | bound Fas strongly
YLGA [YLGA 4 mer] | lower, yet significant inhibition | lower compared to the YLGA 12 mer
